Measured values taken from PMC5431903, “Genomic RNA folding mediates assembly of human parechovirus” (Nature Communications, 2017).

Biological target: the molecule itself
Assay: not stated; purified HPeV1 virions heated to 56 °C for 30 min, then 4 °C for 10 days (1x selection buffer: 10 mM Tris-HCl pH 7.7, 150 mM NaCl, 1 mM MgCl2); whole capsids removed by centrifugation; how the pentamers were shown is in Supplementary Fig. 1

B1: HPeV1 (Harris strain) capsid protein protomer of VP0, VP1 and VP3 (complex)
chain 1: METIKSIADMATGVVSSVDSTINAVNEKVESVGNEIGGNLLTKVADDASNILGPNCFATTAEPENKNVVQATTTVNTTNLTQHPSAPTMPFSPDFSNVDNFHSMAYDITTGDKNPSKLVRLETHEWTPSWARGYQITHVELPKVFWDHQDKPAYGQSRYFAAVRCGFHFQVQVNVNQGTAGSALVVYEPKPVVTYDSKLEFGAFTNLPHVLMNLAETTQADLCIPYVADTNYVKTDSSDLGQLKVYVWTPLSIPTGSANQVDVTILGSLLQLDFQNPRVFAQDVNIYDN
chain 2: NSWGSQMDLTDPLCIEDDTENCKQTMSPNELGLTSAQDDGPLGQEKPNYFLNFRSMNVDIFTVSHTKVDNLFGRAWFFMEHTFTNEGQWRVPLEFPKQGHGSLSLLFAYFTGELNIHVLFLSERGFLRVAHTYDTSNDRVNFLSSNGVITVPAGEQMTLSAPYYSNKPLRTVRDNNSLGYLMCKPFLTGTSTGKIEVYLSLRCPNFFFPLPAPKVTSSRALRGDMANLTNQ
chain 3: APNGKKKNWKKIMTMSTKYKWTRTKIDIAEGPGSMNMANVLCTTGAQSVALVGERAFYDPRTAGSKSRFDDLVKIAQLFSVMADSTTPSENHGVDAKGYFKWSATTAPQSIVHRNIVYLRLFPNLNVFVNSYSYFRGSLVLRLSVYASTFNRGRLRMGFFPNATTDSTSTLDNAIYTICDIGSDNSFEITIPYSFSTWMRKTNGHPIGLFQIEVLNRLTYNSSSPSEVYCIVQGKMGQDARFFCPTGSVVTFQ
notes: capsid protein VP0 of human parechovirus 1, Harris strain; cut product of the viral polyprotein, not cleaved into VP2 and VP4; capsid protein VP1 of human parechovirus 1, Harris strain; cut product of the viral polyprotein; capsid protein VP3 of human parechovirus 1, Harris strain; One protomer holds one copy each of VP0, VP1 and VP3; five protomers form the pentameric capsomer, and the capsid is …
stoichiometry N: 5
